Measurements: patent publication US10494417B2, “Peptide inhibitors of BCR-ABL oligomerization” (University of Utah Research Foundation, priority 2014, dated 2019)
“Also recorded” adds a separate entry of the source.

Assays:
[1] = system: Ba/F3 cells expressing native BCR-ABL1 (Ba/F3-p210); assay: Colony forming assay of transfected Ba/F3-p210 cells; type: cell-based, mouse; conditions: CCmut3 alone vs EV or EGFP control
Method: Briefly, K562 or Ba/F3-p210 cells were transfected according to the protocol above. One day following transfection, 1.0×10^6 cells per transfection group were collected and re-suspended in sterile PBS. […] Finally, 1.1 mL of cell/methylcellulose mixture was seeded in duplicate and allowed to grow at 37° C. and 5% CO2 for 7 days. Colony formation was assessed by counting colonies in two 200 μm2 areas on the plate. Experiments were performed once in duplicate (n=1 in duplicate). All kit reagents and media were purchased from Stem Cell Technologies (Vancouver, BC, Canada).

[2] = system: Ba/F3 cells expressing BCR-ABL1E255V; assay: Colony forming assay of Ba/F3 BCR-ABL1 E255V cells; type: cell-based, mouse; conditions: for colony formation, in words: CCmut3 gene delivery (transfection; b502 lentiviral infection) vs EV; for reduction in CFCs / colony forming ability: CCmut3 vs EV
Method: Following selection of transfected cells by cell sorting, viable cells were enumerated and seeded into methylcellulose as described previously (Dixon, A. S., et al. (2011) J. Biol. Chem. 286, 27751-27760). Briefly, mCherry-positive Ba/F3 cells were re-suspended in IMDM with 2% FBS (Stem Cell Technologies) at a concentration of 10,000 cells/mL. Three hundred microliters of this dilution was added to 3 mL of Methocult media (M3434—Ba/F3 p210 wild-type and mutant lines or M3234—Ba/F3 parental, Stem Cell Technologies). Approximately 1100 cells, or 1.2 mL, were seeded per dish in duplicate for each transfection. Colonies were counted 7 days later in an area of […] per dish.
Following selection of transfected cells by cell sorting, methylcellulose colony assays were performed by plating in 0.9% methylcellulose (Stem Cell Technologies; M3234 for Ba/F3 BCR-ABL1 native and mutant lines; M3434 for Ba/F3 parental cells; H4230 for CML patient samples). mCherry-positive Ba/F3 cells (1.1×10^3 cells/plate) or GFP-positive primary CML CD34+ cells (1×10^3 cells/plate) were seeded per dish in duplicate. In the case of CML patient samples, cells were plated in the presence of 1× StemSpan CC100 cytokine cocktail (StemCell Technologies). All cells were plated with or without the indicated TKI in three or more independent experiments. Plates were incubated at 37° C. in a 5% CO2 humidified incubator. Colonies were counted 7-14 days later in an area of 50 μm2 per dish using an inverted microscope.

K562 cells [3] = assay: Peptide internalization Western blot, K562 cells; type: cell-based, human; conditions: 30 μM, 1.5 hours, Western blot of cell lysates
Method: 1.0×10^6 cells resuspended in RPMI or DMEM were seeded in a CellStar 6 well plate (Sigma Aldrich). Cells were then treated with the peptides (CPP-CCmut3, CPP-CCwt, CCmut3, and CPP-His) at a final concentration 30 uM. This is a standard concentration used in cell-penetrating peptide studies. For the kinase activity Western blot, cells were treated with peptides for 16 hours.
For the internalization experiment, cells were treated with peptides for 1.5 hours followed by a 15 minute incubation at 37° C. with heparin sulfate, 0.5 mg/mL (a gift from Kuby Balagurunathan, University of Utah). Cells were centrifuged and resuspended in 1 mL plain RPMI. Trypsin was added to a final concentration of 0.1% w/v, and the cells were incubated at 37° C. for 10 minutes. At that time 1 mL FBS was added to neutralize the trypsin. Cells were then centrifuged at 500×g for 10 minutes, followed by 3 rounds of washes with 5 mL cold PBS.
For both kinase activity and internalization Western blots, cells were resuspended in 100 μL of RIPA lysis buffer (Cell Signaling, Danvers, Mass., USA) with 100× protease/phosphatase inhibitor added (Cell Signaling) and transferred into a pre-chilled microcentrifuge tube. Cells were then sonicated, centrifuged at 12,000×g for 15 minutes, and then the supernatant was transferred into a fresh, pre-chilled microcentrifuge tube. […]

K562 cells [4] = assay: Colony forming assay of protein-treated K562 cells; type: cell-based, human; conditions: proteins 30 μM, imatinib 1.0 μM; colonies counted after 7 days
Method: This experiment was carried out as before with the modifications noted below. […] 1×10^3 cells (in 1.1 mL) were seeded in a 6-well plate (CellStar), in duplicate for each treatment. 7 days after seeding cells, colonies were counted in a […] area per well. Independent treatments were tested 3 times in duplicate (n=3). All reagents for the CFA were purchased from Stem Cell Technologies, Vancouver, BC, Canada.

B1: CCmut3: modified Bcr-Abl coiled-coil domain (residues 1-72) with mutations C38A, K39E, S41R, L45D, E48R, Q60E (protein)
chain: MVDPVGFAEAWKAQFPDSEPPRMELRSVGDIEQELERAEARIRRDEQRVNQERFRMIYLETLLAKEKKSYDR
- colony formation, in words [1]: greatly reduced; also recorded: nearly eliminated colony forming ability
- colony formation, in words ([1]; listed as CC^mut3): greatly reduced; also recorded: nearly eliminated CFCs; also recorded: significantly lower than the EGFP control
- colony formation, in words [2]: significantly fewer colonies per unit area
- colony formation, in words ([2]; listed as CC^mut3): Inhibition in colony formation
- reduction in CFCs / colony forming ability [2]: > 10 fold
- reduction in CFCs / colony forming ability ([2]; listed as CC^mut3): more than 10 fold
- internalization into cells (K562 cells [3]): unable to enter the cells; also recorded: not internalized; also recorded: did not enter
- colony forming (transformative ability) (K562 cells [4]): ineffective at reducing cell proliferation and colony forming compared to untreated cells
